Assay results as given in patent publication US20260258115A1 (MAPP BIOPHARMACEUTICAL, published 2026).
Residue numbers refer to the chain shown, from its start.

B1: ADI-24858 (antibody, V domains shown)
VH: EVQLLESGGGLVKPGGSLRLSCAASGFTFSSYSMNWVRQAPGKGLEWVSSISSSSSYIYYADSVKGRFTISRDNAKNSLYLQMNSLRAEDTAVYYCARGGYSYGYSFDYWGQGTLVTVSS
VL: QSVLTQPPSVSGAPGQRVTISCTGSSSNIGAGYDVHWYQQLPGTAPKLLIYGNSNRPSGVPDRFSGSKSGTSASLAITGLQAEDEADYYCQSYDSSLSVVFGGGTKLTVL
notes: full-length IgG
B2: ADI-19496 (antibody, V domains shown)
VH: EVQLVESGGGVVQPGGSLRLSCAASGFTFSSYGMHWVRQAPGKGLEWVAFIRYDGSNKYYADSVKGRFTISRDNSKSTLYLQMNSLRAEDTAVYYCAKDATFGYSSSWYNFDYWGQGTLVTVSS
VL: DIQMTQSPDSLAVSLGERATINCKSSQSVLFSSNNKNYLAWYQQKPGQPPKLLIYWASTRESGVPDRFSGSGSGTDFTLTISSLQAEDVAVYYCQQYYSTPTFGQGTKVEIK
notes: full-length IgG; also called Ab 198
B3: ADI-19495 (antibody, V domains shown)
VH: QVQLQESGPGLVKPSETLSLTCTVSGGSISSYYWSWIRQPPGKGLEWIGYIYTSGSTNYNPSLKSRVTISVDTSKNQFSLKLSSVTAADTAVYYCARVGSYYDLQHWGQGTLVTVSS
VL: DIQLTQSPSSVSASVGDRVTITCRASQGISSWLAWYQQKPGKAPKLLIYAASSLQSGVPSRFSGSGSGTDFTLTISSLQPEDFATYYCQQANSFPLTFGGGTKVEIK
B4: ADI-19430 (antibody, V domains shown)
VH: QVQLVQSGAEVKKPGSSVKVSCKASGGTFSSYTISWVRQAPGQGLEWMGRIIPILGIANYAQKFQGRVTITADKSTSTAYMELSSLRSEDTAVYYCARDGGPYYYDSSGYYRLDYWGQGTLVTVSS
VL: DIRMTQSPLSLPVTLGQPASISCRSSQSLVYSDGNTYLNWFQQRPGQSPRRLIYKVSNRDSGVPDRFSGSGSGTDFTLKISRVEAEDVGVYYCMQGTHWTYTFGQGTKLEIK
notes: full-length IgG
B5: ADI-25468 (antibody, V domains shown)
VH: QVQLVQSGAEVKKPGESLKISCKGSGYSFTSYWIGWVRQMPGKGLEWMGIIYPGDSDTRYSPSFQGQVTISADKSISTAYLQWSSLKASDTAMYYCARHVGQVYCSSTSCYTSREYYFDYWGQGTLVTVSS
VL: not shown
notes: full-length IgG
B6: ADI-24845 (antibody, V domains shown)
VH: EVQLVESGGGLVKPGGSLRLSCAASGFTFSSYSMNWVRQAPGKGLEWVSSISSSSSYIYYADSVKGRFTISRDNAKNSLYLQMNSLRAEDTAVYYCARDYCSGGSCYLAAFDIWGQGTTVTVSS
VL: QPVLTQPASVSGSPGQSITISCTGTSSDVGGYNYVSWYQQHPGKAPKLMIYEVSNRPSGVSNRFSGSKSGNTASLTISGLQAEDEADYYCSSYTSSSTPVVFGGGTKLTVL
notes: full-length IgG
B7: ADI-22776 (antibody, V domains shown)
VH: EVQLLESGGGLVKPGGSLRLSCAASGFTFSDYYMSWIRQAPGKGLEWVSYISSSGSTIYYADSVKGRFTISRDNAKNSLYLQMNSLRAEDTAVYYCAREIGGSYTGGAFDIWGQGTMVTVSS
VL: SYELTQPPSVSVAPGQTARITCGGNNIGSKSVHWYQQKPGQAPVLVVYDDSDRPSGIPERFSGSNSGNTATLTISRVEAGDEADYYCQVWDSSSDHVVFGGGTKVTVL
notes: full-length IgG
B8: ADI-25598 (antibody, V domains shown)
VH: QVQLQESGPGLVKPSETLSLTCTVSPPSISSSSYYWGWIRQPPGKGLEWIGSIYYSGSTYYNPSLKSRVTISVDTSKNQFSLKLSSVTAADTAVYYCARPDSSGAFDIWGQGTMVTVSS
VL: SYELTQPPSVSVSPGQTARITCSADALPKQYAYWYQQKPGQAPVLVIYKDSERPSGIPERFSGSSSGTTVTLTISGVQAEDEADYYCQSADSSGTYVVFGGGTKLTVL
notes: full-length IgG
B9: ADI-19500 (antibody, V domains shown)
VH: EVQLVESGGGLVQPGGSLRLSCAASGFTFSSYSMNWVRQAPGKGLEWVSYISSSSSTIYYADSVKGRFTISRDNAKNSLYLQMNSLRAEDTAVYYCARGNTVTTFLDYWGQGTLVTVSS
VL: DIRLTQSPSSFSASTGDRVTITCRASQGISSYLAWYQQKPGKAPKLLIYAASTLQSGVPSRFSGSGSGTDFTLTISCLQSEDFATYYCQQYYSYPPLTFGGGTKVDIK
notes: full-length IgG
B10: ADI-24823 (antibody, V domains shown)
VH: EVQLLESGGGLVKPGGSLRLSCAASGFTFSSYSMNWVRQAPGKGLEWVSSISSSSSYIYYADSVKGRFTISRDNAKNSLYLQMNSLRAEDTAVYYCAREGDYYGSGRPFDYWGQGTLVTVSS
VL: QSVVTQPPSVSGAPGQRVTISCTGSSSNIGAGYDVHWYQQLPGTAPKLLIYGNSNRPSGVPDRFSGSKSGTSASLAITGLQAEDEADYYCQSYDSSLSVVFGGGTKLTVL
notes: full-length IgG
B11: ADI-25557 (antibody, V domains shown)
VH: B10 VH with E99G, G100Y, D101G, Y102S, Y103G, G104S, S105Y, G106L, R107D, P108Y
VL: QPGLTQPPSVSGAPGQRVTISCTGSSSNIGAGYDVHWYQQLPGTAPKLLIYGNSNRPSGVPDRFSGSKSGTSASLAITGLQAEDEADYYCQSYDSSLSGFYVFGTGTKLTVL
notes: full-length IgG
B12: ADI-22765 (antibody, V domains shown)
VH: EVQLVESGGGLVKPGGSLRLSCAASGFTFSSYSMNWVRQAPGKGLEWVSSISSSSSYIYYADSVKGRFTISRDNAKNSLYLQMNSLRAEDTAVYYCARDRGDGYNYDYWGQGTLVTVSS
VL: B10 VL with S2P, V4L, L107V
notes: full-length IgG
B13: ADI-19450 (antibody, V domains shown)
VH: EVQLLESGGGLVQPGGSLRLSCAASGFTFSSYWMHWVRQAPGKGLVWVSRINSDGSSTSYADSVKGRFTISRDNAKNTLYLQMNSLRAEDTAVYYCARAPISILRFLGGYFDYWGQGTLVTVSS
VL: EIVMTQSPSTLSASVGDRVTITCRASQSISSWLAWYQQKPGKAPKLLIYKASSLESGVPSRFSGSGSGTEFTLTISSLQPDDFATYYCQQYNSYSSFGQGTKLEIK
notes: full-length IgG; also called Ab 160
B14: ADI-25556 (antibody, V domains shown)
VH: QVQLVQSGGGLVKPGGSLRLSCAASGFTFSSYSMNWVRQAPGKGLEWVSSISSSSSYIYYADSVKGRFTISRDNAKNSLYLQMNSLRAEDTAVYYCARQRGGIAVAGTYFDLWGRGTLVTVSS
VL: QSVLTQPPSVSGAPGQRVTISCTGSSSNIGAGYDVHWYQQLPGTAPKLLIYGNSNRPSGVPDRFSGSKSGTSASLAITGLQAEDEADYYCQSYDSTVVFGGGTKVTVL
notes: full-length IgG; also called Ab 450
B15: ADI-19502 (antibody, V domains shown)
VH: EVQLVESGGGVVQPGGSLRLSCAASGFTFSSDGMHWVRQAPGKGLEWVAFIQYDGTNKYYVDSVKGRFTISRDNSKNTLYLQMNSLRAEDTAVYYCAKDQGFRYSSSWYAFDIWGQGTMVTVSS
VL: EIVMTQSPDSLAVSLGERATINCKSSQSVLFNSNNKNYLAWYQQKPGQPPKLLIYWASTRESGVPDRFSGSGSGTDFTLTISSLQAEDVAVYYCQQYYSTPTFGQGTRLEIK
notes: full-length IgG
B16: ADI-19499 (antibody, V domains shown)
VH: EVQLLESGPGLVKPSETLSLTCTVSGGSISSSSYYWGWIRQPPGKGLEWIGSIYYSGSTYYNPSLKSRVTISVDTSKNQFSLKLSSVTAADTAVYYCAVLLYSSSSFDYWGQGTLVTVSS
VL: NFMLTQPHSVSESPGKTVTISCTRSSGSIASNYVQWYQQRPGSSPTTVIYEDNQRPSGVPDRFSGSIDSSSNSASLTISGLKTEDEADYYCQSYDSSNQAVFGGGTQLTVL
notes: full-length IgG; also called Ab 201
B17: ADI-25542 (antibody, V domains shown)
VH: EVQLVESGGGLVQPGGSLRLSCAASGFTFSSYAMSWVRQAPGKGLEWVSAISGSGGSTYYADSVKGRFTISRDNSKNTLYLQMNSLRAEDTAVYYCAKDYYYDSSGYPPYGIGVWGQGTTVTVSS
VL: QTVVTQEPSFSVSPGGTVTLTCGLSSGSVSTSYYPSWYQQTPGQAPRTLIYSTNTRSSGVPDRFSGSILGNKAALTITGAQADDESDYYCVLYMGSGIWVFGGGTKVTVL
notes: full-length IgG
B18: ADI-24795 (antibody, V domains shown)
VH: EVQLVESGGGLVKPGGSLRLSCAASGFTFSSYSMNWVRQAPGKGLEWVSSISSSSSYIYYADSVKGRFTISRDNAKNSLYLQMNSLRAEDTAVYYCARVGYSSSSGAFDYWGQGTLVTVSS
VL: QSVLTQPPSVSGAPGQRVTISCTGSSSNIGAGYDVHWYQQLPGTAPKLLIYGNSNRPSGVPDRFSGSKSGTSASLAITGLQAEDEADYYCQSYDSSLSGSVFGGGTKVTVL
notes: full-length IgG; also called Ab 363
B19: ADI-22758 (antibody, V domains shown)
VH: QVQLVESGGGLVKPGGSLRLSCAASGFSISSYSMNWVRQAPGKGLEWVSSISGSSSYIYYGDSVKGRFTISRDNARNSLYLQMNSLRAEDTAVYYCARGDIAAAGTITYYFAHWGQGTLVTVSS
VL: B18 VL with P42T, Y51F, S54N, S100A, K107Q, V108L
notes: full-length IgG
B20: ADI-19449 (antibody, V domains shown)
VH: B18 VH with V99D, G100S, Y101G, S103Y, S104L, G106Y, Y110I, L116M
VL: B18 VL with Q1S, S2Y, V3E, S100Y, G104T
notes: full-length IgG
B21: ADI-24800 (antibody, V domains shown)
VH: EVQLLESGGGLVKPGGSLRLSCAASGFTFSSYSMNWVRQAPGKGLEWVSSISSSSSYIYYADSVKGRFTISRDNAKNSLYLQMNSLRAEDTAVYYCARVRGGYSYGYGMDVWGQGTTVTVSS
VL: B18 VL with L4V, Y33F, R63Q, S100V, V108L
notes: full-length IgG
B22: ADI-19440 (antibody, V domains shown)
VH: EVQLVESGGGLVQPGGSLRLSCAASGFTFSSYSMNWVRQAPGKGLEWVSYISSSSSTIYYADSVKGRFTISRDNAKNSLYLQMNSLRAEDTAVYYCAREGYSGSYGYYFDYWGQGTLVTVSS
VL: B18 VL with G104T, V108L
notes: full-length IgG
B23: ADI-25548 (antibody, V domains shown)
VH: EVQLVESGGGLIQPGGSLRLSCAASGFTVSSNYMSWVRQAPGKGLEWVSVIYSGGSTYYADSVKGRFTISRDNSKNTLYLQMNSLRAEDTAVYYCARGPQFGVSYSSGWYSFDYWGQGTLVTVSS
VL: QSVLIQPRSVSGSPGQSVTISCTGTSSDVGGYNYVSWYQQHPGKAPKLMIYDVSKRPSGVPDRFSGSKSGNTASLTISGLQAEDEADYYCCSYAGSYTFVVFGGGTKLTVL
notes: full-length IgG
B24: ADI-22769 (antibody, V domains shown)
VH: QVQLVQSGGGLVQPGGSLRLSCAASGFTFSDHYMDWVRQAPGKGLEWVGRTRNKANSYTTEYAASVKGRFTISRDDSKNSLYLQMNSLKTEDTAVYYCARVGYYYYYGMDVWGQGTTVTVSS
VL: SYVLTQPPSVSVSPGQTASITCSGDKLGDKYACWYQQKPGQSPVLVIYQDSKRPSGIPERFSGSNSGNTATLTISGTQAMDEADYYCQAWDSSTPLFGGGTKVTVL
notes: full-length IgG

target: T1, RSV postfusion F (postF), subtype A (respiratory syncytial virus subtype A, UniProt P03420 26-513); experiment: BLI
T1 construct: also called Postfusion subtype A; F deltaFP

**Q.** Does B1 bind?
**A.** no binding

**Q.** Does B2 bind?
**A.** no binding

**Q.** Does B3 bind?
**A.** no binding

**Q.** Does B4 bind?
**A.** no binding

**Q.** Does B5 bind?
**A.** no binding

**Q.** Does B6 bind?
**A.** no binding

**Q.** Does B7 bind?
**A.** no binding

**Q.** Does B8 bind?
**A.** no binding

**Q.** Does B9 bind?
**A.** no binding

**Q.** Does B10 bind?
**A.** no binding

**Q.** Does B11 bind?
**A.** no binding

**Q.** Does B12 bind?
**A.** no binding

**Q.** Does B13 bind?
**A.** no binding

**Q.** Does B14 bind?
**A.** no binding

**Q.** Does B15 bind?
**A.** no binding

**Q.** Does B16 bind?
**A.** no binding

**Q.** Does B17 bind?
**A.** no binding

**Q.** Does B18 bind?
**A.** no binding

**Q.** Does B19 bind?
**A.** no binding

**Q.** Does B20 bind?
**A.** no binding

**Q.** Does B21 bind?
**A.** no binding

**Q.** Does B22 bind?
**A.** no binding

**Q.** Does B23 bind?
**A.** no binding

**Q.** Does B24 bind?
**A.** no binding

target: T2, RSV prefusion F (preF), subtype B (respiratory syncytial virus subtype B); experiment: BLI, IgG
T2 construct: also called Prefusion subtype B

**Q.** Which Kd does the source give for B1 here?
**A.** 26.3 nM

**Q.** For B4, which Kd is on record?
**A.** 16.8 nM

**Q.** How did the Kd turn out when B6 was run?
**A.** 36.7 nM

**Q.** B10 was tested. Which Kd did it give?
**A.** 6.03 nM

**Q.** With B11 as the binder, how does the Kd read?
**A.** 33.3 nM

**Q.** For B13, which Kd is on record?
**A.** 38.6 nM

**Q.** Which Kd does the source give for B14 here?
**A.** 42 nM

**Q.** For B18, which Kd is on record?
**A.** 34.2 nM

**Q.** Which Kd does the source give for B20 here?
**A.** 26 nM

**Q.** With B21 as the binder, how does the Kd read?
**A.** 51.4 nM

**Q.** How did the Kd turn out when B22 was run?
**A.** 14.3 nM
